Patent publication US20230057904A1 (Chugai, published 2023)

T1: mouse CLDN9 (mouse, UniProt Q9Z0S7 1-217)
T1 construct: also called mCLDN9; mCLDN9/FS293
T1 sequence: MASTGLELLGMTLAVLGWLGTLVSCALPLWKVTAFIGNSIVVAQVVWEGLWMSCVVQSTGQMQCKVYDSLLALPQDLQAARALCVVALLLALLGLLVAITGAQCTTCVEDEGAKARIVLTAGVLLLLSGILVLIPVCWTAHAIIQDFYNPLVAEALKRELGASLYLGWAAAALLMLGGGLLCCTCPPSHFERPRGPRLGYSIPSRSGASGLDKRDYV

T2: human CLDN9 (human, UniProt O95484 1-217)
T2 construct: also called hCLDN9; hCLDN9/BaF
T2 sequence: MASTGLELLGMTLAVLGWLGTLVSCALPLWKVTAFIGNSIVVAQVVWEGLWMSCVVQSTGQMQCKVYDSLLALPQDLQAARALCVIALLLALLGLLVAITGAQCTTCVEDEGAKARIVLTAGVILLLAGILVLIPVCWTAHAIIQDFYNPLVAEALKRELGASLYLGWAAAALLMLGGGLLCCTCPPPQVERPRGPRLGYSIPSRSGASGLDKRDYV

T3: mouse CLDN4 (mouse, UniProt O35054 1-210)
T3 construct: also called mCLDN4; mCLDN4/FS293
T3 sequence: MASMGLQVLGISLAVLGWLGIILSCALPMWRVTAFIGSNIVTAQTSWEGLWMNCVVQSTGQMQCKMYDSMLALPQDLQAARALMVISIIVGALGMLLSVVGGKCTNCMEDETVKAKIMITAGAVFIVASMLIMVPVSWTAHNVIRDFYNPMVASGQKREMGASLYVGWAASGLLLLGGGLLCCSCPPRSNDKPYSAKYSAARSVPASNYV

T4: human CLDN3 (human, UniProt O15551 1-220)
T4 construct: also called hCLDN3; hCLDN3/BaF
T4 sequence: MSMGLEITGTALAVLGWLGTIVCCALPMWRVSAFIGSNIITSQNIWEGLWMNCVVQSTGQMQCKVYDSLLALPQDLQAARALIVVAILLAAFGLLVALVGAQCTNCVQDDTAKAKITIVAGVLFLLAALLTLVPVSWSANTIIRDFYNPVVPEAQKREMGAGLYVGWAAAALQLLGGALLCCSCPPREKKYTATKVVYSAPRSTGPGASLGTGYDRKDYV

T5: mouse CLDN3 (mouse, UniProt Q9Z0G9 1-219)
T5 construct: also called mCLDN3; mCLDN3/FS293
T5 sequence: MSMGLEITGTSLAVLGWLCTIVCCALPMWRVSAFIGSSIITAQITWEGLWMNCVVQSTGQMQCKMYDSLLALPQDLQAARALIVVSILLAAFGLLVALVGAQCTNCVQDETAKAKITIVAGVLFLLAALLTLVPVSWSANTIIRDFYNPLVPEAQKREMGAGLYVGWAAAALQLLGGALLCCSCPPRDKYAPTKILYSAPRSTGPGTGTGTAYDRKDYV

T6: human CLDN4 (human, UniProt O14493 1-209)
T6 construct: also called hCLDN4; hCLDN4/BaF
T6 sequence: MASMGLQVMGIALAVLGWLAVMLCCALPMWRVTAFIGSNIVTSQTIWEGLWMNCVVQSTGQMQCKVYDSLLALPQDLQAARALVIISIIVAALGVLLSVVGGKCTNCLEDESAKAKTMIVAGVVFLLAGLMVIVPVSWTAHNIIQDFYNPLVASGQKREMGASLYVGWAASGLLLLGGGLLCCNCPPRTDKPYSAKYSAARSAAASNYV

T7: mouse CLDN6 (mouse, UniProt Q9Z262 1-219)
T7 construct: also called mCLDN6; mCLDN6/FS293
T7 chain: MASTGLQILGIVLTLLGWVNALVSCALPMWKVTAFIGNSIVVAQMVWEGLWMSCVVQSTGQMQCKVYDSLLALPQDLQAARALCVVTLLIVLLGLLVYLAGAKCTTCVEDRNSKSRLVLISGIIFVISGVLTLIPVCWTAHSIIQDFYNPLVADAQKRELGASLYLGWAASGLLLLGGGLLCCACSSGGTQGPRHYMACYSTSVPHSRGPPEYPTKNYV


What was measured:
[1] = molecular target: T1, mouse CLDN9; assay: flow cytometry, FreeStyle 293-F transfectants expressing mouse CLDN9, anti-human IgG Alexa Fluor 647; MFI
Procedure: (§1) Antibodies were mixed with FreeStyle™ 293-F cells transiently expressed human and mouse CLDN3, 4, 6, and 9 at final concentration of 10 micro g/mL. After 1 hour of incubation, cells were washed by 0.1% BSA containing D-PBS(−), and incubated in 5 micro g/mL of either Goat anti-Human IgG (H+L) Cross-Adsorbed Secondary Antibody, Alexa Fluor 647 (Invitrogen, A21445) or Goat anti-Mouse IgG (H+L) Highly Cross-Adsorbed Secondary Antibody, Alexa Fluor 647 (Invitrogen, A21236), for 1 hour. Cells were then washed with 0.1% BSA containing D-PBS(−), resuspended in 5 micro L of 0.1% BSA containing D-PBS(−), and analyzed by flow cytometer (iQue Screener, intellicyte).

[2] = molecular target: T2, human CLDN9; assay: flow cytometry, FreeStyle 293-F transfectants expressing human CLDN9, anti-human IgG Alexa Fluor 647; MFI
Procedure: as §1

[3] = molecular target: T3, mouse CLDN4; assay: flow cytometry, FreeStyle 293-F transfectants expressing mouse CLDN4, anti-human IgG Alexa Fluor 647; MFI
Procedure: as §1

[4] = molecular target: T4, human CLDN3; assay: flow cytometry, FreeStyle 293-F transfectants expressing human CLDN3, anti-human IgG Alexa Fluor 647; MFI
Procedure: as §1

[5] = molecular target: T5, mouse CLDN3; assay: flow cytometry, FreeStyle 293-F transfectants expressing mouse CLDN3, anti-human IgG Alexa Fluor 647; MFI
Procedure: as §1

[6] = molecular target: T6, human CLDN4; assay: flow cytometry, FreeStyle 293-F transfectants expressing human CLDN4, anti-human IgG Alexa Fluor 647; MFI
[7] = molecular target: T7, mouse CLDN6; assay: flow cytometry, FreeStyle 293-F transfectants expressing mouse CLDN6, 10 micro g/mL antibody, anti-human IgG Alexa Fluor 647; MFI
Procedure: as §1

[8] = molecular target: T6, human CLDN4; assay: flow cytometry on hCLDN4/BaF (Ba/F3 transfectant), Alexa Fluor 488 anti-human IgG; histogram against KLH/TR01
Procedure: Amino acid sequence are highly conserved among CLDN3, CLDN4, CLDN6 and CLDN9. Thus we examined CLDN6 binding specificity by FACS analysis. hCLDN6/BaF, hCLDN3/BaF, hCLDN4/BaF, and hCLDN9/BaF were incubated with CS2201, CS2961, AH05/TR01 and 6PHU3/TR01 at 15 micro g/ml. KLH/TR01 generated in Example 2-3 was used as a staining control. Binding of each antibody was detected with Alexa Fluor 488-conjugated anti human IgG (Invitrogen). Dead cells were separated by eFlour 780 (Invitrogen) staining.

binding result [1] | binding result [2] | binding result [3] | binding result [4] | binding result [5] | binding result [6] | binding result [7] | binding result [8] | Binder
no binding (tested: 10 micro g/mL) | no binding (tested: 10 micro g/mL) | no binding (tested: 10 micro g/mL) | no binding (tested: 10 micro g/mL) | no binding (tested: 10 micro g/mL) | no binding (tested: 10 micro g/mL) | binds | – | CDA0013/TR01 (bispecific antibody, V domains shown, CDA0013 is rabbit-derived; IgG format by Fab arm exchange, silent Fc; also called anti-CLDN6/CD3 bispecific antibody CDA0013/TR01) VH 1: QSLEESGGRLVTPGTPLTLTCTVSGIDLNNYGVGWVRQPPGKGLEWIGYINALGSAYYASWAKGRFTISRTSTTVDLKITSPTTEDTATYFCARVRYLYIGGGGYWIDRLDLWGQGTLVTVSS VL 1: DVVMTQTPASVEAAVGDTVTIKCQASQSISSCLSWYQQKPGQPPKLLIYYASTLASGVPSRFSGSGSGTEFTLTISGLQCDDAATYYCLGVVSYVSADGGFGGGTEVVVK VH 2: QVQLVESGGGVVQPGGSLRLSCAASGFTFSNAWMHWVRQAPGKGLEWVAQIKDKSQNYATYVAESVKGRFTISRADSKNSIYLQMNSLKTEDTAVYYCRYVHYAAGYGVDIWGQGTTVTVSS VL 2: DIVMTQSPLSLPVTPGEPASISCRSSQPLVHSNRNTYLHWYQQKPGQAPRLLIYKVSNRFSGVPDRFSGSGSGTDFTLKISRVEAEDVGVYYCGQGTQVPYTFGQGTKLEIK
– | – | no binding (tested: 10 micro g/mL) | no binding (tested: 10 micro g/mL) | no binding (tested: 10 micro g/mL) | – | binds | no binding (tested: 15 micro g/ml) | 6PHU3/TR01 (bispecific antibody, V domains shown, IgG format by Fab arm exchange, silent Fc; also called anti-CLDN6/CD3 bispecific antibody 6PHU3/TR01) VH 1: EVQLQQSGPELVKPGASMKISCKASGYSFTGYTMNWVKQSHGKNLEWIGLINPYNGGTIYNQKFKGKATLTVDKSSSTAYMELLSLTSEDSAVYYCARDYGFVLDYWGQGTTLTVSS VL 1: DIVLTQSPSIMSVSPGEKVTITCSASSSVSYMHWFQQKPGTSPKLCIYSTSNLASGVPARFSGRGSGTSYSLTISRVAAEDAATYYCQQRSNYPPWTFGGGTKLEIK VH 2: QVQLVESGGGVVQPGGSLRLSCAASGFTFSNAWMHWVRQAPGKGLEWVAQIKDKSQNYATYVAESVKGRFTISRADSKNSIYLQMNSLKTEDTAVYYCRYVHYAAGYGVDIWGQGTTVTVSS VL 2: DIVMTQSPLSLPVTPGEPASISCRSSQPLVHSNRNTYLHWYQQKPGQAPRLLIYKVSNRFSGVPDRFSGSGSGTDFTLKISRVEAEDVGVYYCGQGTQVPYTFGQGTKLEIK
